The data set “SEC” concerns the molecule itself. The data set can be described thus: SEC. In general terms: In gel filtration, larger molecules generally elute earlier.
Substrate in data set [1]: O=C(O)C1=NCCC1
As to the kind of experiment: purified protein. The conditions noted are these: NADPH.

Substrate in data set [2]: O=C(O)C1=NCCCC1
As to the kind of experiment: purified protein. The following applies: NADPH.

Substrate in data set [3]: O=C(O)C1=NC[C@@H](O)C1
As to the kind of experiment: purified protein. The following applies: NADPH.

Substrate in data set [4]: O=C(O)[C@@H]1CCCCN1
The data set can be described thus: purified protein. The conditions noted are these: NADP+.

Substrate in data set [5]: O=C(O)[C@@H]1CCCN1
The data set can be described thus: purified protein. The conditions noted are these: NADP+.

Where [6] appears, read: potassium phosphate pH 6.5, 30 °C.
[7] abbreviates: potassium phosphate pH 7.0, 30 °C.

By stoichiometry N is commonly meant a count of units in the complex or per binding partner. As a reminder, the Km is the substrate concentration at which the rate is half of its maximum. The term kcat denotes the maximal rate divided by the concentration of active sites. What is called kcat/Km is the turnover number divided by the Michaelis constant.

B1: AbLhpH, trans-3-hydroxy-L-proline dehydratase of Azospirillum brasilense (enzyme, UniProt V5YXI5 1-335, looked up)
chain: MKITRSLSTVEVHTGGEAFRIVTSGLPRAPGDTIVQRRAWLKENADEIRRALMFEPRGHADMYGGYLTEPVSPNADFGVIFVHNEGYSDHCGHGVIALSTAAVELGWVQRTVPETRVGIDAPCGFIEAFVKWDGEHAGPVRFVNVPSFIWQRDVSVETPSFGTVTGDIAYGGAFYFYVDGAPFDLPVREAAVEKLIRFGAEVKAAANAKYPVVHPEIPEINHIYGTIIANAPRHPGSTQANCCVFADREVDRSPTGSGTGGRVAQLYQRGLLAAGDTLVNESIVGTVFKGRVLRETTVGDIPAVIPEVEGSAHICGFANWIVDERDPLTYGFLVR
On to B1, for which the “stoichiometry N” value in the data set “SEC” worked out at 2.

B2: CpLhpH, trans-3-hydroxy-L-proline dehydratase of Colwellia psychrerythraea 34H (enzyme, UniProt Q485S0 1-355, looked up)
chain: MTKNIAQAAVKFEQWQPKIEQESYLTINSLECHTGGEPLRIITSGFPVLKGNTILAKANDCKQNYDQLRRALMFEPRGHADMYGAIITDAERDDSHFGAVFIHNEGYSSMCGHAVIALTKTAVESGVVARTGDVTQVVIDVPCGQIYAMAYSHNNVVKHVSFQCVPSFVYAKDQQVEVDGIGMVQFDIAYGGAFYAYVQASSLGLSLVPEQQEKLIAYGRKIKQAIIPQFEINHPTTAELSFLYGVIFIDDSPNQDVHSRNVCIFADGELDRSPTGSGVSGRIALHHAKQQIVLNETITIESILASSFSVRAIETVCFAGFDAVIPEVTGDAYVCGKGQWFINAEDPLKYGFLLR
On to B2, for which, in the data set “SEC”, the “stoichiometry N” value turned out to be 2.

B3: AbLhpI, Δ1-pyrroline-2-carboxylate reductase of Azospirillum brasilense (enzyme, UniProt V5YW53 1-311, looked up)
chain: MTALSPIPVFDAADTAALLAYPALLATLGQAVADYAAGEIVSPERLVVPLQAGGVMLSMPSSARDLATHKLVNVCPGNGARGLPTILGQVTAYDASTGEMRFALDGPTVTGRRTAAVTALGIQALHGAAPRDILLIGTGKQAANHAEALAAIFPEARLHVRGTSADSAAAFCAAHRAQAPRLVPLDGDAIPDAIDVVVTLTTSRTPVYREAAREGRLVVGVGAFTADAAEIDANTVRASRLVVDDPAGARHEAGDLIVAQVDWQHVASLADVLGGTFDRSGPLLFKSVGCAAWDLAACRTARDALAARRAG
In the case of B3, the Km in the data set “purified protein [1]” (setting [6]) came to 0.628 ± 0.045 mM; in the data set “purified protein [2]” (setting [6]) it was 0.474 ± 0.050 mM; in “purified protein [3]” (setting [6]) it was 0.491 ± 0.063 mM; in “purified protein [4]” (glycine-NaOH pH 10.5, 30 °C) it was 6.54 ± 0.96 mM; in “purified protein [5]” (glycine-NaOH pH 10.5, 30 °C), 3.63 ± 0.31 mM. Moreover, the kcat in the data set “purified protein [1]” (setting [6]) amounted to 523 ± 21.7 s⁻¹; in the data set “purified protein [2]” (setting [6]), 166 ± 10.2 s⁻¹; in the data set “purified protein [3]” (setting [6]), 10.3 ± 0.967 s⁻¹; in the data set “purified protein [4]” (glycine-NaOH pH 10.5, 30 °C) it was 2.5 ± 0.233 s⁻¹; in the data set “purified protein [5]” (glycine-NaOH pH 10.5, 30 °C), 3.92 ± 0.117 s⁻¹. The kcat/Km was determined as 835000 ± 23300 M⁻¹ s⁻¹ in the data set “purified protein [1]” (setting [6]); 352000 ± 16800 M⁻¹ s⁻¹ in “purified protein [2]” (setting [6]); 21200 ± 750 M⁻¹ s⁻¹ in “purified protein [3]” (setting [6]); 383 ± 20 M⁻¹ s⁻¹ in the data set “purified protein [4]” (glycine-NaOH pH 10.5, 30 °C); 1080 ± 61.7 M⁻¹ s⁻¹ in “purified protein [5]” (glycine-NaOH pH 10.5, 30 °C). Also, the “stoichiometry N” value in “SEC” turned out to be 2.

B4: C14orf149, human trans-3-hydroxy-L-proline dehydratase (enzyme, UniProt Q96EM0 1-354, looked up)
chain: MESALAVPRLPPHDPGTPVLSVVDMHTGGEPLRIVLAGCPEVSGPTLLAKRRYMRQHLDHVRRRLMFEPRGHRDMYGAVLVPSELPDAHLGVLFLHNEGYSSMCGHAVLALGRFALDFGLVPAPPAGTREARVNIHCPCGLVTAFVACEDGRSHGPVRFHSVPAFVLATDLMVDVPGHGKVMVDIAYGGAFYAFVTAEKLGLDICSAKTRDLVDAASAVTEAVKAQFKINHPDSEDLAFLYGTILTDGKDAYTKEPTTNICVFADEQVDRSPTGSGVTARIALQYHKGLLELNQMRAFKSSATGSVFTGKAVREAKCGDFKAVIVEVSGQAHYTGTASFIIEDDDPLRDGFLLK
As for B4, the “stoichiometry N” value in “SEC” came to 2.

B5: CpLhpI, Δ1-pyrroline-2-carboxylate reductase of Colwellia psychrerythraea 34H (enzyme, UniProt Q485R8 1-316, looked up)
chain: MKIISAEQVHQNLNFEELIPLLKQSFSRPFSMPQRQVYSLAPEQSENHDAFALLPSWNEEVIGNKAFTYFPDNAKKHDLPGLFSKIMLFKRQTGEPLALVDGTSVTYWRTAAISALASQLLSRKNSQHLMLFGTGNLASYLVKAHLTVRDIKQVTLWGRNAKKVSKLIADFSILYPAVTFKTSVDVNAEVASADIICCATGAKTPLFDGNSVSAGCHIDCLGNHMTDARECDTTTILRARVFVDSLTNTLNEAGELLIPMAEDAFNKDEIVGELADMCKTPSMLRQSSDEITLFKSVGTAISDLVAAHSVVEKLAD
Consider B5, for which the Km in the data set “purified protein [1]” (setting [6]) stood at 5.90 ± 0.36 mM; in “purified protein [2]” (setting [6]) it was 7.26 ± 1.22 mM; in the data set “purified protein [3]” (setting [6]), 8.28 ± 2.45 mM; in the data set “purified protein [4]” (glycine-NaOH pH 10.5, 30 °C), 80.1 ± 2.8 mM; in “purified protein [5]” (glycine-NaOH pH 10.5, 30 °C) it was 18.3 ± 2.4 mM. Moreover, the kcat came out at 124 ± 7.83 s⁻¹ in the data set “purified protein [1]” (setting [6]); 1.38 ± 0.228 s⁻¹ in “purified protein [2]” (setting [6]); 1.02 ± 0.287 s⁻¹ in “purified protein [3]” (setting [6]); 0.0213 ± 0.000667 s⁻¹ in “purified protein [4]” (glycine-NaOH pH 10.5, 30 °C); 1.09 ± 0.115 s⁻¹ in “purified protein [5]” (glycine-NaOH pH 10.5, 30 °C). Further, the catalytic efficiency (kcat/Km) in “purified protein [1]” (setting [6]) was 21170 ± 33.3 M⁻¹ s⁻¹; in “purified protein [2]” (setting [6]), 190 ± 3.33 M⁻¹ s⁻¹; in the data set “purified protein [3]” (setting [6]), 124 ± 2.33 M⁻¹ s⁻¹; in “purified protein [4]” (glycine-NaOH pH 10.5, 30 °C) it was 0.267 ± 0.0167 M⁻¹ s⁻¹; in the data set “purified protein [5]” (glycine-NaOH pH 10.5, 30 °C), 59.5 ± 1.5 M⁻¹ s⁻¹. In addition, the “stoichiometry N” value in the data set “SEC” turned out to be 2.

B6: PaLhpD, Pyr2C/Pip2C reductase of Pseudomonas aeruginosa (enzyme, Pseudomonas aeruginosa PAO1, UniProt Q9I492 1-334, looked up)
chain: MIRMTLDEVRELAVRILRRHAFSEAHVQAVADTLVAGERDECASHGIWRLLGCIATLKAGKVSADAEPELHDIAPGLLRVDAHGGFSQCAFRLGLPHLLEKARSQGIAAMAVNRCVHFSALWVEVEALTEAGLVALATTPSHAWVAPAGGRKPIFGTNPIAFGWPRPDGPPFVFDFATSAVARGEIQLHERAGKPIPLGWGVDEQGEPTTDASAALRGAMLTFGGHKGSALAAMVELLAGPLIGDLTSAESLAYDEGSRSSPYGGELLIAIDPRRMLGASAEEHLARAETLFEGIVEQGARLPSQRRFEARERSARDGVTIPEALHRELLALLE
Consider B6, for which the Km in “purified protein [1]” (setting [7]) amounted to 0.447 ± 0.040 mM; in “purified protein [2]” (setting [7]), 1.57 ± 0.3 mM; in the data set “purified protein [3]” (setting [7]) it was 0.835 ± 0.109 mM; in the data set “purified protein [4]” (glycine-NaOH pH 10.0, 30 °C), 34.8 ± 4.0 mM; in the data set “purified protein [5]” (glycine-NaOH pH 10.0, 30 °C) it was 18.5 ± 2.1 mM. Moreover, the turnover number (kcat) in “purified protein [1]” (setting [7]) was found to be 41.7 ± 2 s⁻¹; in the data set “purified protein [2]” (setting [7]), 35.3 ± 4.83 s⁻¹; in “purified protein [3]” (setting [7]) it was 14.5 ± 1.18 s⁻¹; in “purified protein [4]” (glycine-NaOH pH 10.0, 30 °C), 2.25 ± 0.233 s⁻¹; in “purified protein [5]” (glycine-NaOH pH 10.0, 30 °C), 3.42 ± 0.3 s⁻¹. Further, the specificity constant (kcat/Km) was 93300 ± 3670 M⁻¹ s⁻¹ in “purified protein [1]” (setting [7]); 22500 ± 1130 M⁻¹ s⁻¹ in “purified protein [2]” (setting [7]); 17400 ± 800 M⁻¹ s⁻¹ in “purified protein [3]” (setting [7]); 64.7 ± 0.833 M⁻¹ s⁻¹ in the data set “purified protein [4]” (glycine-NaOH pH 10.0, 30 °C); 185 ± 5 M⁻¹ s⁻¹ in “purified protein [5]” (glycine-NaOH pH 10.0, 30 °C). Also, in the data set “SEC”, the “stoichiometry N” value was determined as 2.
